This note sets out measurements from PMC8879858 (Nature plants, 2021).

In the assay the target is T1, cpSRP43-FL (Arabidopsis thaliana, UniProt O22265 57-373).
T1 sequence (looked up): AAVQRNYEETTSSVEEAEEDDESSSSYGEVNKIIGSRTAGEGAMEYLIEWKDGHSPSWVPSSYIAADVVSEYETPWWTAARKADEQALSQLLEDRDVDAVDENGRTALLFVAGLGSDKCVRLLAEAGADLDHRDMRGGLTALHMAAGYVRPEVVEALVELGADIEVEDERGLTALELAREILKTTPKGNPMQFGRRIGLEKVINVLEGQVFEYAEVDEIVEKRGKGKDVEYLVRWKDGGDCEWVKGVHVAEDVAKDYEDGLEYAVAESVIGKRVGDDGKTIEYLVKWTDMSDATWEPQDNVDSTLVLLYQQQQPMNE
Nature of the assay: fluorescence polarisation.

Where no end group is shown, it is not given here. fluorescein = fluorescein label covalently attached to the C-terminal cysteine

Take QKQKAPPGTARRKRKAC(fluorescein) [fluorescein-labeled cpSRP54M peptide]: the binding result is reported as “binds”.
